T1: recombinant hMCAM-His (human, UniProt P43121 24-559)
T1 construct: not shown: His tag
T1 chain: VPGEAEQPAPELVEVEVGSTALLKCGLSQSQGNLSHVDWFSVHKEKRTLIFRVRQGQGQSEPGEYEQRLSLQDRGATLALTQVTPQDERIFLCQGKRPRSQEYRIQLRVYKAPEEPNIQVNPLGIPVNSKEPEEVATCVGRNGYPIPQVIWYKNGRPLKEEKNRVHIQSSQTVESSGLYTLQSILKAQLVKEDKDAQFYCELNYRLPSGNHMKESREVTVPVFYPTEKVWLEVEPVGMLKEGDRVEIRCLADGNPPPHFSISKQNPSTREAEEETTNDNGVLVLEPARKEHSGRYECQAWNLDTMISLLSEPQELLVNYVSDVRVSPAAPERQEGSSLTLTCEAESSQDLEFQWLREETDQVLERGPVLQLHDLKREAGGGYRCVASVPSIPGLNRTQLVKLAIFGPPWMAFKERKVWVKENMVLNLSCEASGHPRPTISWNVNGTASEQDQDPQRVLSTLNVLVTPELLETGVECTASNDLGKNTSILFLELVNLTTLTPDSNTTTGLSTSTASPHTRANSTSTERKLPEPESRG

T2: human MCAM, full length, expressed on transfected cells (human, UniProt P43121 24-646)
T2 construct: CHO cells transfected with the full length human MCAM gene; also called hMCAM; CD146
T2 chain: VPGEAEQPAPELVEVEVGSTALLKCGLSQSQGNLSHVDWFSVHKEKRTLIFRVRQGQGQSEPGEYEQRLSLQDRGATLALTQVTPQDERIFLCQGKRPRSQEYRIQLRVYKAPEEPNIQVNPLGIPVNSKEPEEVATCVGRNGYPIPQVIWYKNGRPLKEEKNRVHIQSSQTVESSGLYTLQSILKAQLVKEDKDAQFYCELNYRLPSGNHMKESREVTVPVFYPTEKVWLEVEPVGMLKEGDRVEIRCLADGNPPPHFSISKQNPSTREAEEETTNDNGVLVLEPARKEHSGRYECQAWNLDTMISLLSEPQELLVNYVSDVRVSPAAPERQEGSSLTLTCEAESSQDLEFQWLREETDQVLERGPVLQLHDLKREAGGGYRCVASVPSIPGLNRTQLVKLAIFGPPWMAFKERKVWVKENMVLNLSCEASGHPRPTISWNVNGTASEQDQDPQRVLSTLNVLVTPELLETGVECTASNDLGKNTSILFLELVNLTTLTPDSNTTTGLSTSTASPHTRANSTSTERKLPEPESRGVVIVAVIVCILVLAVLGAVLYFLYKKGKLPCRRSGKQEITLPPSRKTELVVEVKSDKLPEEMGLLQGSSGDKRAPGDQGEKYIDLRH


Legend:
recombinant hMCAM-His [1] = molecular target: T1, recombinant hMCAM-His; assay: ForteBio Octet Red, antibody on anti-human Fc sensors, hMCAMHis analyte, 1:1 fit; relative to rodent 2120
Protocol: The affinities were measured using the ForteBio Octet Red. Anti-human Fc sensors were used to capture the humanized antibodies, and several concentrations of hMCAMHis analyte were used to determine the affinity using a 1:1 fitting model.

recombinant hMCAM-His [2] = molecular target: T1, recombinant hMCAM-His; assay: competitive ELISA on hMCAM-His against biotinylated rodent or chimeric 2120; relative to rodent 2120
Protocol: ELISA plates were coated with recombinant hMCAM-His, and blocked with casein buffer to prevent non-specific binding. Biotinylated rodent or chimeric antibody was added at a subsaturating concentration, in the presence or absence of 3× increasing concentrations of unlabeled competitor (humanized antibody, rodent, or chimeric). After washing to remove unbound antibody, streptavidin HRP was added to allow detection of the biotinylated antibody. The ELISA was developed with TMB substrate and the OD450 was measured. The IC50 of the unlabeled competitor was determined using the GraphPad Prism5 software.

[3] = molecular target: T2, human MCAM, full length, expressed on …; assay: laminin/FACS assay: blocking of laminin 411 binding to hMCAM expressing CHO cells; relative to rodent 2120
Protocol: Following incubation for 30-45 minutes, the cells were washed and anti-laminin conjugated to AF650 (NovusBio) was added to detect the bound laminin. The cells were run on a flow cytometer to measure the laminin binding signal.

Row | Binder | Fold over rodent (Forte affinity) (recombinant hMCAM-His [1]) | Fold over rodent (Forte affinity, Expt. #1) (recombinant hMCAM-His [1]) | Fold over rodent (Forte affinity, Expt. #2) (recombinant hMCAM-His [1]) | Fold over rodent (Forte affinity, second column) (recombinant hMCAM-His [1]) | Fold over rodent (competitive ELISA IC50) (recombinant hMCAM-His [2]) | Fold over rodent (competitive ELISA IC50, Expt. #1) (recombinant hMCAM-His [2]) | Fold over rodent (competitive ELISA IC50, Expt. #2) (recombinant hMCAM-His [2]) | Fold over rodent (Blocking, Expt#1) [3] | Fold over rodent (Blocking, Expt#2) [3]
1 | h2120_VH1 + h2120_VL3 (antibody, V domains shown, Humanized V regions cloned into expression vectors containing human CK (VL) or human IgG1 (VH); expressed in 293F cells; also called Standard VH + conservative VL; VH1VL3) VH: QVTLKESGPVLVKPTETLTLTCTVSGFSLTSNGVSWVRQPPGKALEWIAAISSGGTTYYNSAFKSRLTISRDTSKSQVVLTMTNMDPVDTATYYCARRYGYGWYFDFWGQGTLVTVSS VL: DIQMTQSPSSLSASVGDRVTINCKASQNIYNSLAWYQQKPGKAPKVLIFNANSLQTGIPSRFSGSGSGTDFTLTISSLQPEDFATYYCQQFYSGYTFGQGTKLEIK | 5.9 fold | 5.64 fold | 6.21 fold | 5.8 fold | 1.8 fold | 2.23 fold | 2.42 fold | 1.7 fold | 2.8 fold
2 | h2120_VH1 + h2120_VL1 (antibody, human IgG1, V domains shown, also called Standard VH + standard VL) VH: QVTLKESGPVLVKPTETLTLTCTVSGFSLTSNGVSWVRQPPGKALEWIAAISSGGTTYYNSAFKSRLTISRDTSKSQVVLTMTNMDPVDTATYYCARRYGYGWYFDFWGQGTLVTVSS VL: DIQMTQSPSSLSASVGDRVTITCKASQNIYNSLAWYQQKPGKAPKVLIFNANSLQTGIPSRFSGSGSGTDFTLTISSLQPEDFATYYCQQFYSGYTFGQGTKLEIK | 8.8 fold | – | – | – | 3.1 fold | – | – | 2 fold | 3.5 fold
3 | h2120_VH1 + h2120_VL2 (antibody, human IgG1, V domains shown, also called Standard VH + aggressive VL) VH: QVTLKESGPVLVKPTETLTLTCTVSGFSLTSNGVSWVRQPPGKALEWIAAISSGGTTYYNSAFKSRLTISRDTSKSQVVLTMTNMDPVDTATYYCARRYGYGWYFDFWGQGTLVTVSS VL: DIQMTQSPSSLSASVGDRVTITCKASQNIYNSLAWYQQKPGKAPKVLIFNANSLQTGVPSRFSGSGSGTDFTLTISSLQPEDFATYYCQQFYSGYTFGQGTKLEIK | 10.8 fold | – | – | – | 3.1 fold | – | – | 4.6 fold | 12.6 fold

Next, values leading:

Row | Fold over rodent (Forte affinity) (recombinant hMCAM-His [1]) | Fold over rodent (Forte affinity, Expt. #1) (recombinant hMCAM-His [1]) | Fold over rodent (Forte affinity, Expt. #2) (recombinant hMCAM-His [1]) | Fold over rodent (Forte affinity, second column) (recombinant hMCAM-His [1]) | Fold over rodent (competitive ELISA IC50) (recombinant hMCAM-His [2]) | Fold over rodent (competitive ELISA IC50, Expt. #1) (recombinant hMCAM-His [2]) | Fold over rodent (competitive ELISA IC50, Expt. #2) (recombinant hMCAM-His [2]) | Fold over rodent (Blocking, Expt#1) [3] | Fold over rodent (Blocking, Expt#2) [3] | Binder
4 | 17.4 fold | – | – | – | 5 fold | – | – | 3.8 fold | 5.6 fold | h2120_VH4 + h2120_VL3 (antibody, human IgG1, V domains shown, also called N-Q deamidate VH + conservative VL) VH: QVTLKESGPVLVKPTETLTLTCTVSGFSLTSQGVSWVRQPPGKALEWIAAISSGGTTYYNSAFKSRLTISRDTSKSQVVLTMTNMDPVDTATYYCARRYGYGWYFDFWGQGTLVTVSS VL: DIQMTQSPSSLSASVGDRVTINCKASQNIYNSLAWYQQKPGKAPKVLIFNANSLQTGIPSRFSGSGSGTDFTLTISSLQPEDFATYYCQQFYSGYTFGQGTKLEIK
5 | – | 16.1 fold | – | – | – | 3.47 fold | – | – | – | h2120_VH3 + h2120_VL3 (antibody, human IgG1, V domains shown, also called N-S deamidate VH + conservative VL) VH: QVTLKESGPVLVKPTETLTLTCTVSGFSLTSSGVSWVRQPPGKALEWIAAISSGGTTYYNSAFKSRLTISRDTSKSQVVLTMTNMDPVDTATYYCARRYGYGWYFDFWGQGTLVTVSS VL: DIQMTQSPSSLSASVGDRVTINCKASQNIYNSLAWYQQKPGKAPKVLIFNANSLQTGIPSRFSGSGSGTDFTLTISSLQPEDFATYYCQQFYSGYTFGQGTKLEIK
6 | – | 6.57 fold | 6.43 fold | – | – | 1.93 fold | 2.62 fold | – | – | h2120_VH2 + h2120_VL3 (antibody, human IgG1, V domains shown, also called Conservative VH + conservative VL) VH: QVTLKESGPVLVKPTETLTLTCTVSGFSLTSNGVSWVRQPPGKALEWIAAISSGGTTYYNSAFKSRLSISRDTSKSQVVLTMTNMDPVDTATYYCARRYGYGWYFDFWGQGTLVTVSS VL: DIQMTQSPSSLSASVGDRVTINCKASQNIYNSLAWYQQKPGKAPKVLIFNANSLQTGIPSRFSGSGSGTDFTLTISSLQPEDFATYYCQQFYSGYTFGQGTKLEIK

From US20150259419A1 (PROTHENA BIOSCIENCES, published 2015)
